Experimental data as given in US20210196796A1 (SYNTHEKINE, published 2021).
Residue numbers refer to the chain shown, from its start. Names and notes keep the numbering of the source.

T1: orthogonal hCD122 receptor (hoRb), hCD122 with H133D and Y134F (human, UniProt P14784 27-550)
T1 sequence: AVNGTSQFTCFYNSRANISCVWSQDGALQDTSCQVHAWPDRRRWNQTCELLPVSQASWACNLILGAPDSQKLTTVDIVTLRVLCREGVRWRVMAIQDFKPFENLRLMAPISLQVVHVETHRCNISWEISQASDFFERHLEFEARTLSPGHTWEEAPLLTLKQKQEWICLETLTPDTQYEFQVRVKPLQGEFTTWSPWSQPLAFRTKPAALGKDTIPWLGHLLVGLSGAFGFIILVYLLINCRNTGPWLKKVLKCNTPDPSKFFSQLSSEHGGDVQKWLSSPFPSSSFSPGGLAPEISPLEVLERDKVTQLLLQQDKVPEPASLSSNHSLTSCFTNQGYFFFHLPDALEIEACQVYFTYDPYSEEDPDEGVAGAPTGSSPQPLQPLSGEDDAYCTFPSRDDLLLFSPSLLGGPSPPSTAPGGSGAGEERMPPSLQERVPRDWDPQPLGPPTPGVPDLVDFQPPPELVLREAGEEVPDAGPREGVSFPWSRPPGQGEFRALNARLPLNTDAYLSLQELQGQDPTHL

B1: L18F, SQVLKA (ligand)
chain: APTSSSTKKTQLQLSQLFVLLKAILNGINNYKNPKLTRMLTFKFYMPKKATELKHLQCLEEELKPLEEVLNLAQSKNFHLRPRDLISNINVIVLELKGSETTFMCEYADETATIVEFLNRWITFCQSIISTLT
B2: L18W, SQVLKA (ligand)
chain: B1 chain with F18W
B3: L18Q, SQVLKA (ligand)
chain: B1 chain with F18Q
B4: L18D, SQVLKA (ligand)
chain: B1 chain with F18D
B5: L18E, SQVLKA (ligand)
chain: B1 chain with F18E
B6: L18V, SQVLKA (ligand)
chain: B1 chain with F18V
B7: T3A, SQVLKA (ligand)
chain: B1 chain with T3A, F18L
B8: T3C, SQVLKA (ligand)
chain: B1 chain with T3C, F18L
B9: L18S, SQVLKA (ligand)
chain: B1 chain with F18S
B10: L18I, SQVLKA (ligand)
chain: B1 chain with F18I
B11: L18Y, SQVLKA (ligand)
chain: B1 chain with F18Y
B12: L18K, SQVLKA (ligand)
chain: B1 chain with F18K

Target: T1, orthogonal hCD122 receptor (hoRb), …
Experiment: cell-based or functional assay
Throughout, for Relative Proliferation Fold Change 3F8 1:10: reference of the scale not given here.
Throughout, for Relative Proliferation Fold Change 3F8 1:2: reference of the scale not given here.
Throughout, for Relative Proliferation Fold Change 3F8 1:50: reference of the scale not given here.
Throughout, for Relative Proliferation Fold Change NKL 1:10: reference of the scale not given here.
Throughout, for Relative Proliferation Fold Change NKL 1:2: reference of the scale not given here.
Throughout, for Relative Proliferation Fold Change NKL 1:50: reference of the scale not given here.

Row | Binder | NKL Ortho Proliferation Signal 1:2 | NKL Ortho Proliferation Signal 1:10 | NKL Ortho Proliferation Signal 1:50 | Relative Proliferation Fold Change NKL 1:2 [fold] | Relative Proliferation Fold Change NKL 1:10 [fold] | Relative Proliferation Fold Change NKL 1:50 [fold]
1 | B1 | 48600 | 39400 | 19400 | 3.85 | 2.52 | 1.3
2 | B2 | 18700 | 17000 | 10700 | 1.56 | 1.1 | 0.71
3 | B3 | 47500 | 41200 | 21400 | 3.93 | 2.5 | 1.41
4 | B4 | 6380 | 8160 | 7460 | 0.6 | 0.59 | 0.56
5 | B5 | 8260 | 9060 | 8120 | 0.57 | 0.56 | 0.51
6 | B6 | 17800 | 14000 | 8670 | 1.36 | 0.96 | 0.62
7 | B7 | 69100 | 79500 | 47000 | 3.91 | 4.22 | 2.67
8 | B8 | 60600 | 70800 | 35300 | 4.54 | 4.16 | 2.06
9 | B9 | 27200 | 21500 | 11500 | 2.4 | 1.56 | 0.85
10 | B10 | 23800 | 20500 | 11000 | 2.05 | 1.38 | 0.8
11 | B11 | 37300 | 27000 | 14800 | 3.34 | 2.09 | 1.19
12 | B12 | 22200 | 20200 | 11500 | 1.56 | 1.21 | 0.76

Target: T1, orthogonal hCD122 receptor (hoRb), …
Experiment: cell-based or functional assay
Remark: another data set of the same source

Row | Binder | 3F8 Ortho Proliferation Signal 1:2 [cts/min] | 3F8 Ortho Proliferation Signal 1:10 [cts/min] | 3F8 Ortho Proliferation Signal 1:50 [cts/min] | Relative Proliferation Fold Change 3F8 1:2 [fold] | Relative Proliferation Fold Change 3F8 1:10 [fold] | Relative Proliferation Fold Change 3F8 1:50 [fold]
13 | B1 | 49800 | 40800 | 30000 | 54.8 | 16.8 | 11.8
14 | B2 | 36800 | 32800 | 9570 | 138 | 43.1 | 12.7
15 | B3 | 40800 | 57200 | 44700 | 111 | 80.8 | 47.2
16 | B4 | 44000 | 49600 | 25200 | 92.5 | 81.3 | 28.4
17 | B5 | 6090 | 2350 | 1980 | 9.99 | 0.93 | 0.77
18 | B6 | 36500 | 29500 | 9920 | 139 | 19.2 | 12
19 | B7 | 41400 | 39300 | 19500 | 17.1 | 11 | 8.68
20 | B8 | 33100 | 33700 | 14600 | 34.9 | 12.8 | 12
21 | B9 | 43300 | 48600 | 23600 | 185 | 89 | 41.9
22 | B10 | 36900 | 37300 | 19400 | 81.2 | 29.8 | 11
23 | B11 | 47600 | 51400 | 28200 | 214 | 101 | 64
24 | B12 | 45400 | 42800 | 20400 | 162 | 49.6 | 14.6
